From article PMC10636607 (Cell Reports, 2023)

B1: GAR12 Fab VL D50K (Fab, V domains shown)
VH: EVQLVQSGGGLVQPGGSLRLSCAASGFTFSSYAMSWVRQAPGKGLEWVLSISGSGGSTYYADSVKGRFTISIDNSKKTVYLQMNSLRAEDTAVYYCAKSGEQQLVQAEYFHHWGQGTLVTVSS
VL: DIQMTQSPSTLSASVGDRVTITCRASQSIGRWLAWYQQKPGKAPKLLIYKASSLESGVPSRFSGSGFGTEFTLTISSLQPDDFATYYCQQCDSLLTFGGGTKLEIK
B2: COV44-62 Fab VH R50W (Fab, V domains shown)
VH: QMQLMQSGAEVKKPGASVTVSCKASGDTFSDYRIHWVRQAPGQGLEWMGWMNPKSGDTNFAQKFQGRVTMTRDMSINTAYMTLSGLTFDDTALYYCASLLIVGGFDPLDDFEVWGQGTMVTISS
VL: QSALTQPPSASGSPGQSVTISCSGTSSDVGGYNFVSWYQHHPGKAPKILIYEVTKRPSGVPDRFSGSKSGNTASLTVSGLQAEDEADYYCSSYGGTNNLLFGGGTKLTVL

What was measured:
[1] = target: His6-tagged SARS-CoV-2 receptor-binding domain (SARS-CoV-2, UniProt P0DTC2); test: BLI; conditions: both partners purified
[2] = target: biotinylated SARS-CoV-2 fusion peptide (SARS-CoV-2, biotin on the N-terminus); test: BLI; conditions: both partners purified

Binder	fold change in KD against the wild-type Fab [1] [fold]	binding result [2]
B1	44	
B2		no binding (tested: 33 nM, 100 nM, and 300 nM)
